Measurements from the supplement of paper PMC12855868.

B1: library; numbered along this chain (parent)
chain: MAAAGGARLLRAASAVLGGPAGRWLHHAGSRAGSSGLLRNRGPGGSAEASRSLSVSARARSSSEDKITVHFINRDGETLTTKGKVGDSLLDVVVENNLDIDGFGACEGTLACSTCHLIFEDHIYEKLDAITDEENDMLDLAYGLTDRSRLGCQICLTKSMDNMTVRVPETVADARQSIDVGKTS

Variants of: B1
Assay: scaled log2 fold change in cell abundance, elesclomol vs control (0 = silent mean, 1 = nonsense mean) (scaled log2 ratio); higher = higher viability under elesclomol (loss of FDX1 cuproptosis function)
Conditions: glucose 10 mM
[1] = with ABC1 FDX1 KO, elesclomol 5 nM, 14 days
[2] = with HEK293T FDX1 KO, elesclomol 40 nM, 11 days
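Also: variant abundance is its share of total variant reads in each endpoint sample, from next-generation sequencing of the integrated ORF PCR-amplified out of genomic DNA.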

Variant	scaled log2 fold change [1]	scaled log2 fold change [2]
V92K	0.913	0.724
V92A	0.494	-0.354
V92W	0.354	-0.298
V92E	0.961	0.463
V92D	1.07	1.13
V92N	0.121	0.904
V92M	-0.0956	0.391
V92L	0.019	–
V92P	0.511	0.131
V92T	-0.145	–
V92G	0.459	0.237
V92F	0.0178	0.0606
V92Q	-1.03	0.183
V92H	0.295	0.314
V92I	-0.0115	0.336
V92C	0.195	-0.64
D91F	0.29	-0.219
D91W	0.0916	-0.265
D91G	0.216	0.254
D91E	-0.0305	1.04
D91V	-0.017	0.747
D91T	0.169	–
D91M	-0.119	-1.37
D91H	-0.00925	-0.865

Variant	scaled log2 fold change [1]	scaled log2 fold change [2]
D91K	-0.39	-0.0722
D91C	0.188	0.246
D91Y	-0.0508	0.728
D91N	0.109	-0.0567
D91S	-0.972	0.774
D91I	0.418	-0.331
D91L	0.217	-0.127
D91Q	-1.31	-0.476
D91P	0.307	0.179
D91R	-0.658	-0.752
L90T	-0.871	-0.404
L90W	-0.148	0.134
L90N	0.293	-0.049
L90Y	-0.103	–
L90M	-0.268	-0.239
L90Q	-0.132	-0.0146
L90V	-0.0886	-0.208
L90S	-1	0.27
L90R	-0.127	-0.461
L90P	0.597	0.277
I100M	-0.119	-0.526
I100W	0.297	-0.693
I100G	-0.02	0.208
I100H	0.0888	-0.835

Variant	scaled log2 fold change [1]	scaled log2 fold change [2]
I100Q	0.155	0.874
I100P	0.146	-0.208
I100D	0.409	-0.663
I100V	-0.852	0.0203
I100L	-0.145	0.198
I100K	0.223	0.128
I100C	-0.292	0.943
I100T	0.138	-0.631
I100R	0.287	0.0979
I100F	-0.0589	-0.586
I100Y	0.0992	-0.139
I100E	0.167	0.099
I100N	0.181	0.295
I100S	0.183	1.01
I100A	0.162	-0.8
N97S	-0.104	0.254
N97P	-0.344	-0.674
N97F	0.103	-0.943
N97E	-0.211	-1.28
N97T	-0.0494	0.415
N97R	-0.00904	–
N97C	-0.382	-0.308
N97G	0.132	-0.242
N97K	0.149	0.739

Variant	scaled log2 fold change [1]	scaled log2 fold change [2]
N97Y	-0.364	-0.135
N97W	0.133	-0.218
N97V	-0.176	-0.221
N97M	0.195	-0.11
N97Q	-0.273	0.204
N97D	0.0523	-0.622
N97H	-0.355	-0.619
N97A	0.142	0.975
N97L	-0.931	–
N97I	0.125	-0.93
V93M	0.416	0.244
V93A	-0.15	1.27
V93K	-0.498	–
V93C	-0.0745	0.258
V93L	0.0816	0.422
V93I	0.123	-0.612
V93S	0.115	-0.534
V93G	0.574	-0.293
V93D	0.877	0.496
V93E	0.231	-0.85
V93Q	0.0948	-0.698
V93H	-0.124	-0.875
V93R	0.275	0.16
V93W	0.155	0.488

Variant	scaled log2 fold change [1]	scaled log2 fold change [2]
V93Y	-0.0809	1.12
V93T	-0.217	-0.372
V93P	0.924	0.209
V93N	0.524	0.217
V93F	0.266	-0.377
E95C	-0.0222	–
E95N	0.2	–
E95S	0.146	0.071
E95A	0.102	-0.337
E95P	0.178	-0.222
E95H	-0.106	-0.636
E95F	-0.339	-0.0798
E95K	0.0162	-0.042
E95D	0.126	0.1
E95R	-0.296	-0.0027
E95G	-0.0448	0.982
E95I	0.142	-0.228
E95L	-0.168	-0.709
E95M	0.0861	-0.356
E95V	0.0731	-0.123
E95T	-0.37	–
E95W	0.0294	-0.33
E95Q	0.0772	-0.398
E95Y	-0.143	-0.228
